According to patent US11414454B2, “Compositions, methods, and systems for affinity-based protein identification and purification” (Auctus Biologies, Inc., priority 2017, dated 2022):

Legend:
[1] = test system: rhodamine labeled RPtag (small); assay: Sequential boiling/recovery trials, fraction binding of RPtag (large); parameters: species or system Thermoanaerobacter tengcongensis
Description: The ability of the disclosed proteins and peptides to function after being subjected to thermal stress was also tested. Here again the RPtag (large) and anti-6×His antibody were selected for analysis. Briefly, the RPtag(large) or the anti-6×His antibody was subjected to sequential rounds of boiling and recovery. Specifically, the proteins were subjected to sequential rounds of: 5 min boiling in buffer, followed by recovery for 1 min on ice. After each round of boiling/recovery, the proteins were assayed for binding to their corresponding epitopes and the results plotted.
RPtag (large) and an the anti-His tag antibody (4E3D10H2/E3 purchased from ThermoFisher Scientific) were placed in a solution at about 0.1-1 μM [final] in a buffer of 50 mM Tris pH 8.0, 0.005% Tween20. The protein solutions were repeatedly heated for 5 min at 95° C. and then recovered on ice for 1 min. After each round of heating/cooling, an aliquot was taken and diluted to 100 nM, and incubated with 100 nM either rhodamine labeled RPtag (small) or rhodamine labeled 6x-His peptide (sequence: Rhodamine-GHHHHHH), and the fluorescence anisotropy measured. Fraction binding was calculated via the equation F=(r−rmin)/(r0−rmin) where F is the fraction binding, r is the measured anisotropy, rmin is the anisotropy in the absence of binding protein, and r0 is the anisotropy before any boiling trials.

RPtag(small) (Nd2Cd4) = assay: Fluorescence anisotropy Kd of RPtag(large) variants for control RPtag(small) peptide Nd2Cd4; type: binding, Thermoanaerobacter tengcongensis; details: 2 nM rhodamine labeled Nd2Cd4
Description: An initial Kd was measured between RPtag(large) and the PDGF-β N-terminal peptide (FIG. 16). […] Next, competition experiments were performed using the mutant RPtag(small) peptide Nd2,P5A,E18A.
Kds were measured by incubating increasing concentrations of unlabeled RPtag large mutant with either 20 nM rhodamine labeled PDGF-β n-terminal peptide or 2 nM rhodamine labeled Nd2Cd4 variant of RPtag small, as it has the same number of amino acids as the PDGF-β peptide but contains the native binding sequence. After the incubation, fluorescence anisotropy was measured, and the resultant curves were fit with the equation f=y0+(ymax−y0)*(Ptot+x+Kd−sqrt((Ptot+x+Kd)^2−4*Ptot*x))/(2*Ptot), where y0 is the baseline anisotropy, ymax is the maximum anisotropy, Ptot is the fixed concentration of labeled peptide used, x is the variable concentration of protein used, and Kd is the measured Kd. Data are presented here as Ka=1/Kd. Log transformed Ka's were then compared by one-way ANOVA relative to wt control with Holm-Sidak post hoc correction. ***p<0.001, **p<0.01, *p<0.05. data are mean±SEM (n=3-4). Buffer was 50 mM Tris pH 8.0, 0.005% Tween20. For the sake of comparison, the double mutant h122l,a253a is shown on the same axes, but was not included in the statistical analysis as the experiment was done after the initial results identified the two single mutants.

Sequence of rhodamine labeled RPtag (small) (as listed by the source): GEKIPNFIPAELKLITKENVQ

B1: RPtag (large): RB protein fragment a.a. 1-257 from Thermoanaerobacter tengcongensis; SEQ ID NO: 3 with tags and Cys (protein)
chain: MGSSCHHHHHHSQDPNSSSMKEGKTIGLVISTLNNPFFVTLKNGAEEKAKELGYKIIVEDSQNDSSKELSNVEDLIQQKVDVLLINPVDSDAVVTAIKEANSKNIPVITIDRSANGGDVVSHIASDNVKGGEMAAEFIAKALKGKGNVVELEGIPGASAARDRGKGFDEAIAKYPDIKIVAKQAADFDRSKGLSVMENILQAQPKIDAVFAQNDEMALGAIKAIEAANRQGIIVVGFDGTEDALKAIKEGKMAATIAQQPALMGSLGVEMADKYLK
modifications: tags and added Cys
- stability relative to commercially available products [1]: at least 10 fold
- Kd (RPtag(small) (Nd2Cd4)): 0.41 nM
